Reference: the supplement of paper PMC6757056
± gives the standard deviation of the averaged measurements.

B1: library; a variant is named by its letters at N, in order (parent)
chain: GCUGUCACCGAGAAACUGUGAAGUAUAUCUUAAACCUGGGCACUUAAAAGAUAUAUGGAGUUAGUAGUGCAACCUGCUCGGUCUGAUGAGUCCNNNNNNGGACGAAACAGC

Experiments:
[1] = variants of: B1; assay: normalized RNA/DNA level without ligand (relative to sTRSVctl = 100) (log10 (% of sTRSVctl)); HEK293T; ligand: cyclic di-GMP (c-di-GMP-II aptamer); higher = less ribozyme self-cleavage, higher mRNA level; details: reporter: mCherry (pCS4076), ligand present: no
Method in brief: (§1)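 Ribozyme switch library plasmids linked to reporters were introduced into HEK293T cells at 4 µg per 6-well well, with ligand, if any, added 1 h before. Total RNA was extracted with EDTA 72 h later, reverse-transcribed, amplified, barcoded and sequenced. RNA level was computed from RNA over DNA reads relative to a spiked-in non-cleaving sequence or the top sequences, then scaled and log-transformed. The top set was 25 sequences, values were ×100 and log10, and the cutoff was ≥100 DNA reads.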

[2] = variants of: B1; assay: normalized RNA/DNA level with ligand (relative to sTRSVctl = 100) (log10 (% of sTRSVctl)); HEK293T; ligand: cyclic di-GMP (c-di-GMP-II aptamer); ligand concentration (+) RNA-Seq: 1 mM; higher = less ribozyme self-cleavage, higher mRNA level; details: reporter: mCherry (pCS4076), ligand present: yes
Method in brief: as §1

AGUGUA
normalized RNA/DNA level without ligand (log10) [1]: 1.51 ± 0.042
normalized RNA/DNA level with ligand (log10) [2]: 1.66 ± 0.11

AGUGUG
normalized RNA/DNA level without ligand (log10) [1]: 1.57 ± 0.084
normalized RNA/DNA level with ligand (log10) [2]: 1.71 ± 0.13

AGUGUU
normalized RNA/DNA level without ligand (log10) [1]: 1.617 ± 0.0053
normalized RNA/DNA level with ligand (log10) [2]: 1.79 ± 0.12

UUAAGC
normalized RNA/DNA level without ligand (log10) [1]: 1.734 ± 0.0092
normalized RNA/DNA level with ligand (log10) [2]: 1.85 ± 0.078

UUAAGU
normalized RNA/DNA level without ligand (log10) [1]: 1.71 ± 0.02
normalized RNA/DNA level with ligand (log10) [2]: 1.82 ± 0.1

UUAAGG
normalized RNA/DNA level without ligand (log10) [1]: 1.77 ± 0.047
normalized RNA/DNA level with ligand (log10) [2]: 1.9 ± 0.13

UUAAUA
normalized RNA/DNA level without ligand (log10) [1]: 1.64 ± 0.044
normalized RNA/DNA level with ligand (log10) [2]: 1.8 ± 0.16

UUAAUU
normalized RNA/DNA level without ligand (log10) [1]: 1.76 ± 0.072
normalized RNA/DNA level with ligand (log10) [2]: 1.88 ± 0.12

UUAAUC
normalized RNA/DNA level without ligand (log10) [1]: 1.77 ± 0.075
normalized RNA/DNA level with ligand (log10) [2]: 1.83 ± 0.14

UGUUGC
normalized RNA/DNA level without ligand (log10) [1]: 1.75 ± 0.026
normalized RNA/DNA level with ligand (log10) [2]: 1.89 ± 0.14

UGUUGU
normalized RNA/DNA level without ligand (log10) [1]: 1.72 ± 0.015
normalized RNA/DNA level with ligand (log10) [2]: 1.9 ± 0.061

UGUUGG
normalized RNA/DNA level without ligand (log10) [1]: 1.71 ± 0.04
normalized RNA/DNA level with ligand (log10) [2]: 1.86 ± 0.076

AGUGAG
normalized RNA/DNA level without ligand (log10) [1]: 1.52 ± 0.11
normalized RNA/DNA level with ligand (log10) [2]: 1.67 ± 0.13

AGUGAU
normalized RNA/DNA level without ligand (log10) [1]: 1.671 ± 0.003
normalized RNA/DNA level with ligand (log10) [2]: 1.81 ± 0.12

GGUUAA
normalized RNA/DNA level without ligand (log10) [1]: 1.54 ± 0.11
normalized RNA/DNA level with ligand (log10) [2]: 1.67 ± 0.029

GGUUAC
normalized RNA/DNA level without ligand (log10) [1]: 1.76 ± 0.057
normalized RNA/DNA level with ligand (log10) [2]: 1.87 ± 0.033

GGUUAU
normalized RNA/DNA level without ligand (log10) [1]: 1.64 ± 0.049
normalized RNA/DNA level with ligand (log10) [2]: 1.8 ± 0.2

GGUUAG
normalized RNA/DNA level without ligand (log10) [1]: 1.54 ± 0.062
normalized RNA/DNA level with ligand (log10) [2]: 1.7 ± 0.08

CUAAAG
normalized RNA/DNA level without ligand (log10) [1]: 1.64 ± 0.033
normalized RNA/DNA level with ligand (log10) [2]: 1.79 ± 0.055

CUAAAC
normalized RNA/DNA level without ligand (log10) [1]: 1.7 ± 0.018
normalized RNA/DNA level with ligand (log10) [2]: 1.79 ± 0.095

AUACUC
normalized RNA/DNA level without ligand (log10) [1]: 1.74 ± 0.022
normalized RNA/DNA level with ligand (log10) [2]: 1.87 ± 0.072

AUACUA
normalized RNA/DNA level without ligand (log10) [1]: 1.597 ± 0.0074
normalized RNA/DNA level with ligand (log10) [2]: 1.78 ± 0.18

CGUUAC
normalized RNA/DNA level without ligand (log10) [1]: 1.57 ± 0.059
normalized RNA/DNA level with ligand (log10) [2]: 1.74 ± 0.064

CGUUAG
normalized RNA/DNA level without ligand (log10) [1]: 1.753 ± 0.0013
normalized RNA/DNA level with ligand (log10) [2]: 1.89 ± 0.11

UGUGCU
normalized RNA/DNA level without ligand (log10) [1]: 1.71 ± 0.071
normalized RNA/DNA level with ligand (log10) [2]: 1.87 ± 0.089

UGUGCC
normalized RNA/DNA level without ligand (log10) [1]: 1.85 ± 0.074
normalized RNA/DNA level with ligand (log10) [2]: 1.94 ± 0.14

UGUGCA
normalized RNA/DNA level without ligand (log10) [1]: 1.77 ± 0.02
normalized RNA/DNA level with ligand (log10) [2]: 1.87 ± 0.073

UGUGCG
normalized RNA/DNA level without ligand (log10) [1]: 1.804 ± 0.0083
normalized RNA/DNA level with ligand (log10) [2]: 1.93 ± 0.059

AUACGG
normalized RNA/DNA level without ligand (log10) [1]: 1.58 ± 0.093
normalized RNA/DNA level with ligand (log10) [2]: 1.74 ± 0.056

AUACGC
normalized RNA/DNA level without ligand (log10) [1]: 1.658 ± 0.014
normalized RNA/DNA level with ligand (log10) [2]: 1.81 ± 0.14

AUACGU
normalized RNA/DNA level without ligand (log10) [1]: 1.67 ± 0.043
normalized RNA/DNA level with ligand (log10) [2]: 1.79 ± 0.059

CGUUGA
normalized RNA/DNA level without ligand (log10) [1]: 1.52 ± 0.043
normalized RNA/DNA level with ligand (log10) [2]: 1.71 ± 0.14

CGUUGG
normalized RNA/DNA level without ligand (log10) [1]: 1.737 ± 0.0074
normalized RNA/DNA level with ligand (log10) [2]: 1.85 ± 0.072

CGUUGU
normalized RNA/DNA level without ligand (log10) [1]: 1.76 ± 0.018
normalized RNA/DNA level with ligand (log10) [2]: 1.86 ± 0.1

CGUUGC
normalized RNA/DNA level without ligand (log10) [1]: 1.78 ± 0.027
normalized RNA/DNA level with ligand (log10) [2]: 1.88 ± 0.071

GGUUGA
normalized RNA/DNA level without ligand (log10) [1]: 1.57 ± 0.15
normalized RNA/DNA level with ligand (log10) [2]: 1.74 ± 0.035

GGUUGC
normalized RNA/DNA level without ligand (log10) [1]: 1.7 ± 0.018
normalized RNA/DNA level with ligand (log10) [2]: 1.87 ± 0.021

GGUUGU
normalized RNA/DNA level without ligand (log10) [1]: 1.7 ± 0.061
normalized RNA/DNA level with ligand (log10) [2]: 1.86 ± 0.16

AGUUCU
normalized RNA/DNA level without ligand (log10) [1]: 1.69 ± 0.027
normalized RNA/DNA level with ligand (log10) [2]: 1.87 ± 0.056

AGUUCG
normalized RNA/DNA level without ligand (log10) [1]: 1.69 ± 0.021
normalized RNA/DNA level with ligand (log10) [2]: 1.79 ± 0.11

AGUUCC
normalized RNA/DNA level without ligand (log10) [1]: 1.8 ± 0.043
normalized RNA/DNA level with ligand (log10) [2]: 1.9 ± 0.084

AGUUCA
normalized RNA/DNA level without ligand (log10) [1]: 1.62 ± 0.051
normalized RNA/DNA level with ligand (log10) [2]: 1.8 ± 0.061

UUACGG
normalized RNA/DNA level without ligand (log10) [1]: 1.82 ± 0.058
normalized RNA/DNA level with ligand (log10) [2]: 1.9 ± 0.094

UUACGA
normalized RNA/DNA level without ligand (log10) [1]: 1.77 ± 0.046
normalized RNA/DNA level with ligand (log10) [2]: 1.87 ± 0.11

UUACGC
normalized RNA/DNA level without ligand (log10) [1]: 1.739 ± 0.011
normalized RNA/DNA level with ligand (log10) [2]: 1.86 ± 0.1

UUACGU
normalized RNA/DNA level without ligand (log10) [1]: 1.66 ± 0.03
normalized RNA/DNA level with ligand (log10) [2]: 1.8 ± 0.079

GGUUCG
normalized RNA/DNA level without ligand (log10) [1]: 1.7 ± 0.046
normalized RNA/DNA level with ligand (log10) [2]: 1.88 ± 0.075

GGUUCA
normalized RNA/DNA level without ligand (log10) [1]: 1.6 ± 0.043
normalized RNA/DNA level with ligand (log10) [2]: 1.73 ± 0.12

GGUUCU
normalized RNA/DNA level without ligand (log10) [1]: 1.66 ± 0.044
normalized RNA/DNA level with ligand (log10) [2]: 1.77 ± 0.083

CGUGCC
normalized RNA/DNA level without ligand (log10) [1]: 1.75 ± 0.02
normalized RNA/DNA level with ligand (log10) [2]: 1.84 ± 0.093

CGUGCU
normalized RNA/DNA level without ligand (log10) [1]: 1.64 ± 0.05
normalized RNA/DNA level with ligand (log10) [2]: 1.81 ± 0.063

GGUCGU
normalized RNA/DNA level without ligand (log10) [1]: 1.66 ± 0.056
normalized RNA/DNA level with ligand (log10) [2]: 1.83 ± 0.036

GGUCGC
normalized RNA/DNA level without ligand (log10) [1]: 1.74 ± 0.034
normalized RNA/DNA level with ligand (log10) [2]: 1.87 ± 0.15

AGUGGA
normalized RNA/DNA level without ligand (log10) [1]: 1.44 ± 0.11
normalized RNA/DNA level with ligand (log10) [2]: 1.62 ± 0.086

AGUGGU
normalized RNA/DNA level without ligand (log10) [1]: 1.56 ± 0.089
normalized RNA/DNA level with ligand (log10) [2]: 1.759 ± 0.014

AGUGGC
normalized RNA/DNA level without ligand (log10) [1]: 1.6 ± 0.079
normalized RNA/DNA level with ligand (log10) [2]: 1.79 ± 0.11

CUAAUC
normalized RNA/DNA level without ligand (log10) [1]: 1.712 ± 0.014
normalized RNA/DNA level with ligand (log10) [2]: 1.81 ± 0.087

AUAACC
normalized RNA/DNA level without ligand (log10) [1]: 1.75 ± 0.072
normalized RNA/DNA level with ligand (log10) [2]: 1.83 ± 0.1
